What follows are substances tested on T1, MRB1590(10-668) (Trypanosoma brucei), UPI00067E648B (assay: fluorescence polarization). Details: FP: 20 mM Tris-HCl pH 7.5, 150 mM NaCl, 5% glycerol, 1 mM MgCl2, 2 mM ADP or AMP-PNP, 1 nM 3'-fluoresceinated RNA (heated to 99 C, slow cooled), 25 C.
T1 sequence: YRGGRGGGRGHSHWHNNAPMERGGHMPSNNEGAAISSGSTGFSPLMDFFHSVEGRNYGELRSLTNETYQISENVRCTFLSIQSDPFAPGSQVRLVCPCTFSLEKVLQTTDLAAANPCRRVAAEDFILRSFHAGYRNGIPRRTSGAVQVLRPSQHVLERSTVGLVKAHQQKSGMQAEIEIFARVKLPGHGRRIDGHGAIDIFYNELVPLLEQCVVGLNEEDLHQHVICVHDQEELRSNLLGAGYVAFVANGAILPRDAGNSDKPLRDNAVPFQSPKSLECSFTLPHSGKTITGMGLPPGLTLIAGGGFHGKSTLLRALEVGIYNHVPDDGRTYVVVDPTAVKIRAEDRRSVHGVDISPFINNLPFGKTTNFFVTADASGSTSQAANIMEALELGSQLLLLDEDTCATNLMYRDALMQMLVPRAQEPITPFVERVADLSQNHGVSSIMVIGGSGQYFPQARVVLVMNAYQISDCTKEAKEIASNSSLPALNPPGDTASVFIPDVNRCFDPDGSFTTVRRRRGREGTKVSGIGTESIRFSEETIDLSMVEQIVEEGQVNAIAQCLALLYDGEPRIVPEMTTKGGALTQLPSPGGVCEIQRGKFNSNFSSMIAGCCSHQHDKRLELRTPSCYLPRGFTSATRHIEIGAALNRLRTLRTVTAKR
Work on 40 mer GC-rich A6 yielded a Kd of 1.3 nM. GC-rich RNA 14 mer showed a Kd of 236 nM. Substance GC-rich RNA 15 mer has a Kd of 27.9 nM. GC-rich RNA 16 mer showed a Kd of 8.2 nM. In the case of GC-rich RNA 18 mer, the Kd is reported as 5.7 nM.

Reference: publication PMC4538832, “Structures of the T. brucei kRNA editing factor MRB1590 reveal unique RNA-binding pore motif contained within an ABC-ATPase fold” (Nucleic Acids Research, 2015)
